Data on one molecule can be found in article PMC4148193, “Chromatin Insulator Factors Involved in Long-Range DNA Interactions and Their Role in the Folding of the Drosophila Genome” (PLoS Genetics, 2014).

One data set concerns the target T1, Chromator (Drosophila, UniProt Q86BS3 1-926).
T1 sequence: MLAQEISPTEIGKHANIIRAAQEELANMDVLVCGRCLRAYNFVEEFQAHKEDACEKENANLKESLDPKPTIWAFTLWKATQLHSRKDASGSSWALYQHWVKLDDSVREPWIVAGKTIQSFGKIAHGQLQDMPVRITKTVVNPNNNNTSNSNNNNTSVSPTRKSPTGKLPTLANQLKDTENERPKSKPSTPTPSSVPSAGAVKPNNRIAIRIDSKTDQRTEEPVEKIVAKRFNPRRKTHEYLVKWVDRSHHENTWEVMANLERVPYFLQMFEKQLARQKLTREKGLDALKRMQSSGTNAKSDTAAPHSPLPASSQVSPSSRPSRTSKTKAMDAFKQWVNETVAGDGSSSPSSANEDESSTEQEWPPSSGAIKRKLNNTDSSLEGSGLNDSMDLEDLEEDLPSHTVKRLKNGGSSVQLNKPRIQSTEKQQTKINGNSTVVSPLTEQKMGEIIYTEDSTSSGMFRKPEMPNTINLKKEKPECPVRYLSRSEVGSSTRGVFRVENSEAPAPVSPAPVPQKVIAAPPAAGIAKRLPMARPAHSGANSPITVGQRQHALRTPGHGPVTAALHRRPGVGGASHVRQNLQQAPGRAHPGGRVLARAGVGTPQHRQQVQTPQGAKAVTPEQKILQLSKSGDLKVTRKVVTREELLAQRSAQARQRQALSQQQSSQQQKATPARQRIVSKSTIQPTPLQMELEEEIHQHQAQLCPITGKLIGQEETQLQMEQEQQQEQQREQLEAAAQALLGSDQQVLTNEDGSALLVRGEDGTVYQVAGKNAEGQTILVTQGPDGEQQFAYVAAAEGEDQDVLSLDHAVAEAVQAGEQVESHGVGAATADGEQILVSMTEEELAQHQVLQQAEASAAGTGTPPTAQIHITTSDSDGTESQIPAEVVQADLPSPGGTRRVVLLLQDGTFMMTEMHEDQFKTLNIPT
Kind of data set: competition; unlabeled DNAS vs 2.5 nM Cy3B-DNAS, 638 nM Chromator; FA/FCS: 30 mM Tris/HCl pH 7.5, 100 mM NaCl, 20 uM ZnSO4, 5 mM mercaptoethanol, 0.01 mg/ml BSA, 0.004% Tween20, 2.5 nM DNA; EMSA: 150 mM NaCl, 30 mM Tris/HCl pH. The note with it: protein: recombinant; tags: N-term 6xHis; blunt.

The target in another data set is T2, CP190 (Drosophila, UniProt Q24478 1-1096).
T2 sequence: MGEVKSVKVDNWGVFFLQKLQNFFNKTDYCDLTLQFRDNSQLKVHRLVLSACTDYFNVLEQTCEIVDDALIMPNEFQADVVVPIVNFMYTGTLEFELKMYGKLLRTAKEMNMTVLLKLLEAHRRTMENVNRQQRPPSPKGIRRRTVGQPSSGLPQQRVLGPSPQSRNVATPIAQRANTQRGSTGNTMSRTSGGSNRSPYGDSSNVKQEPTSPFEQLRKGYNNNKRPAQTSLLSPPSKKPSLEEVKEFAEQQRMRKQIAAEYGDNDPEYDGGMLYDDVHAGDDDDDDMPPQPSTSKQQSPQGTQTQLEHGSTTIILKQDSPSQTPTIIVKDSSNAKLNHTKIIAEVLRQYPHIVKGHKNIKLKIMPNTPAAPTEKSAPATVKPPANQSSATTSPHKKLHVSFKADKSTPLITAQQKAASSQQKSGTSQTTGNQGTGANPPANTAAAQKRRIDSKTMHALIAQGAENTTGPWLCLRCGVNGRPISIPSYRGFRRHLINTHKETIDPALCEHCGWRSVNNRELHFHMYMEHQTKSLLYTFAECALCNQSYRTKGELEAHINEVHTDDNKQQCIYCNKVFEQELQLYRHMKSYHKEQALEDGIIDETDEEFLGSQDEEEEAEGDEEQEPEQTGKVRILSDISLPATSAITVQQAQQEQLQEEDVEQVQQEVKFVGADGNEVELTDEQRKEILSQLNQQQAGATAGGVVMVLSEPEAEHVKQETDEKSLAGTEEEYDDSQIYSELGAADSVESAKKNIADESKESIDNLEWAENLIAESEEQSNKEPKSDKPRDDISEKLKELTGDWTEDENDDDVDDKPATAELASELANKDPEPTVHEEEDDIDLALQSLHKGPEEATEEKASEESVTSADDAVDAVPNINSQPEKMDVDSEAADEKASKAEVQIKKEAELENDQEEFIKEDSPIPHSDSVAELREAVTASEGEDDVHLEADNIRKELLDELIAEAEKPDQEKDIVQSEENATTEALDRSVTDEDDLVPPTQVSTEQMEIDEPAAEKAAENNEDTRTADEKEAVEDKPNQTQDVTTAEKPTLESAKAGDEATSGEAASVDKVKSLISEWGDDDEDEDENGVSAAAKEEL
Kind of data set: fluorescence anisotropy; Hill n=2±0.3; 20 uM ZnSO4; FA/FCS: 30 mM Tris/HCl pH 7.5, 100 mM NaCl, 20 uM ZnSO4, 5 mM mercaptoethanol, 0.01 mg/ml BSA, 0.004% Tween20, 2.5 nM DNA; EMSA: 150 mM NaCl, 30 mM Tris/HCl pH. The note with it: protein: recombinant; tags: N-term 6xHis; blunt.

B1: DNAS (dsDNA)
DNA 1: AGAAGTCAGCGCGATAGCATCGATATTTTCGTGACACGCTTGTCATCCGATAGGTAGT
DNA 2: ACTACCTATCGGATGACAAGCGTGTCACGAAAATATCGATGCTATCGCGCTGACTTCT
For the molecule B1, the Ki with Chromator amounted to 514 ± 360 nM. Besides, the Kd with CP190 turned out to be 109 ± 5 nM.
